The experiment addresses ECTV-IL18BP expressed and secreted from mammalian cells, biotinylated (ectromelia virus). As to the kind of experiment: SPR. A general note: Surface plasmon resonance follows binding to a sensor surface in real time, without labels.

Broadly, the Kd is the concentration at which binding is half-saturated. Lower therefore signals a tighter complex. The koff is a measure of how fast the partners let go of each other. The kon is the rate constant with which the complex forms. Low values mean slower complex formation, high ones faster complex formation. In the case of IL18 D110A (ligand), the dissociation constant Kd is 0.2 nM, the off-rate (koff) was found to be 3e-05 s⁻¹ and the kon was found to be 260000 M⁻¹ s⁻¹.

For the origin of these results see paper PMC3426546.
